The supplement of paper PMC9112550, “Optimization of the antimicrobial peptide Bac7 by deep mutational scanning” (BMC Biology, 2022)

Test system: Escherichia coli TOP10
Assay: shrunken log2 fold change of peptide-encoding DNA abundance (4.5 h post-induction vs induction); higher = less antimicrobial activity (less host growth inhibition)
Conditions: time post-induction: 4.5 h; library: site-saturation at positions 5, 18, 19, 20
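Also: peptides expressed intracellularly from a pBAD plasmid library in pooled LB shake-flask culture, induced with 0.3% L-arabinose, DNA abundance read by NGS, three biological replicates, DESeq2 with apeglm shrinkage.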

| Sequence | shrunken log2 fold change |
| --- | --- |
| RRIRCRPPRLPRPRPRPNTDPRP | -0.27 |
| RRIRKRPPRLPRPRPRPLSLPRP | -0.131 |
| RRIRFRPPRLPRPRPRPEPVPRP | 0.326 |
| RRIRDRPPRLPRPRPRPQSHPRP | 0.236 |
| RRIRPRPPRLPRPRPRPENFPRP | 0.0102 |
| RRIRQRPPRLPRPRPRPYEKPRP | -0.0946 |
| RRIRHRPPRLPRPRPRPHHMPRP | -0.324 |
| RRIRERPPRLPRPRPRPIFSPRP | 0.0654 |
| RRIRMRPPRLPRPRPRPGHQPRP | 0.568 |
| RRIRLRPPRLPRPRPRPAPVPRP | 0.23 |
| RRIRERPPRLPRPRPRPLWWPRP | 0.0601 |
| RRIRPRPPRLPRPRPRPNECPRP | -0.217 |
| RRIRQRPPRLPRPRPRPLTGPRP | -0.0104 |
| RRIRHRPPRLPRPRPRPIRWPRP | 0.171 |
| RRIRQRPPRLPRPRPRPKIFPRP | 0.041 |
| RRIRMRPPRLPRPRPRPTPPPRP | 1.17 |
| RRIRARPPRLPRPRPRPFISPRP | 0.112 |
| RRIRPRPPRLPRPRPRPFSNPRP | -0.218 |
| RRIRRRPPRLPRPRPRPLGMPRP | 0.471 |
| RRIRMRPPRLPRPRPRPQAKPRP | 0.0296 |
| RRIRIRPPRLPRPRPRPGWHPRP | -0.0557 |
| RRIRTRPPRLPRPRPRPRTNPRP | -0.192 |
| RRIRHRPPRLPRPRPRPDIYPRP | 0.027 |

| Sequence | shrunken log2 fold change |
| --- | --- |
| RRIRARPPRLPRPRPRPNRCPRP | 0.0646 |
| RRIRVRPPRLPRPRPRPGHDPRP | -0.116 |
| RRIRPRPPRLPRPRPRPRHCPRP | 0.115 |
| RRIRIRPPRLPRPRPRPVMFPRP | -0.255 |
| RRIRYRPPRLPRPRPRPFLIPRP | -1.15 |
| RRIRQRPPRLPRPRPRPQLCPRP | -0.0247 |
| RRIRFRPPRLPRPRPRPSCWPRP | 0.144 |
| RRIRWRPPRLPRPRPRPEKPPRP | 2.12 |
| RRIRVRPPRLPRPRPRPCWYPRP | -0.544 |
| RRIRQRPPRLPRPRPRPSSKPRP | -0.623 |
| RRIRQRPPRLPRPRPRPKMIPRP | -0.231 |
| RRIRCRPPRLPRPRPRPLDLPRP | -0.0926 |
| RRIRVRPPRLPRPRPRPYWYPRP | -0.964 |
| RRIRDRPPRLPRPRPRPSFMPRP | 0.147 |
| RRIRLRPPRLPRPRPRPCCTPRP | -0.0665 |
| RRIRDRPPRLPRPRPRPFFGPRP | 1.19 |
| RRIRTRPPRLPRPRPRPYDKPRP | -0.389 |
| RRIRCRPPRLPRPRPRPNPYPRP | -0.44 |
| RRIRRRPPRLPRPRPRPSEWPRP | -0.15 |
| RRIRTRPPRLPRPRPRPLHTPRP | -0.161 |
| RRIRHRPPRLPRPRPRPTPIPRP | 0.226 |
| RRIRYRPPRLPRPRPRPDKQPRP | 0.0233 |
| RRIRDRPPRLPRPRPRPKMKPRP | -0.42 |

| Sequence | shrunken log2 fold change |
| --- | --- |
| RRIRHRPPRLPRPRPRPQVRPRP | -0.134 |
| RRIRYRPPRLPRPRPRPLRKPRP | -0.258 |
| RRIRKRPPRLPRPRPRPGDYPRP | 0.559 |
| RRIRMRPPRLPRPRPRPRTLPRP | 0.28 |
| RRIRERPPRLPRPRPRPLMVPRP | -0.498 |
| RRIRERPPRLPRPRPRPRWLPRP | 0.108 |
| RRIRMRPPRLPRPRPRPLKWPRP | 0.196 |
| RRIRHRPPRLPRPRPRPPKNPRP | -0.0129 |
| RRIRHRPPRLPRPRPRPRNFPRP | 0.134 |
| RRIRNRPPRLPRPRPRPFKRPRP | 0.09 |
| RRIRSRPPRLPRPRPRPLCHPRP | -0.157 |
| RRIRWRPPRLPRPRPRPNITPRP | -0.161 |
| RRIRFRPPRLPRPRPRPDDLPRP | 0.00489 |
| RRIRNRPPRLPRPRPRPMYKPRP | 0.0573 |
| RRIRDRPPRLPRPRPRPARQPRP | 0.212 |
| RRIRYRPPRLPRPRPRPTQEPRP | 0.0039 |
| RRIRDRPPRLPRPRPRPGSIPRP | 0.0264 |
| RRIRIRPPRLPRPRPRPFPLPRP | -0.547 |
| RRIRMRPPRLPRPRPRPYGNPRP | 0.081 |
| RRIRWRPPRLPRPRPRPRDTPRP | 0.11 |
| RRIRDRPPRLPRPRPRPHRWPRP | 0.00819 |
| RRIRARPPRLPRPRPRPKPWPRP | 0.823 |
| RRIRSRPPRLPRPRPRPIHHPRP | -0.362 |

| Sequence | shrunken log2 fold change |
| --- | --- |
| RRIRFRPPRLPRPRPRPQRWPRP | 0.427 |
| RRIRQRPPRLPRPRPRPCWYPRP | -0.261 |
| RRIRWRPPRLPRPRPRPMNRPRP | -0.00448 |
| RRIRARPPRLPRPRPRPQRNPRP | -0.0146 |
| RRIRPRPPRLPRPRPRPWYGPRP | -0.429 |
| RRIRCRPPRLPRPRPRPAGMPRP | 0.104 |
| RRIRVRPPRLPRPRPRPKNLPRP | 0.0256 |
| RRIRIRPPRLPRPRPRPQKMPRP | -0.269 |
| RRIRHRPPRLPRPRPRPSWIPRP | -0.171 |
| RRIRKRPPRLPRPRPRPQVYPRP | -0.0614 |
| RRIRDRPPRLPRPRPRPVENPRP | -0.127 |
| RRIRPRPPRLPRPRPRPWAEPRP | 0.166 |
| RRIRTRPPRLPRPRPRPCHFPRP | -0.387 |
| RRIRWRPPRLPRPRPRPWCFPRP | -0.0366 |
| RRIRFRPPRLPRPRPRPKIVPRP | -0.207 |
| RRIRSRPPRLPRPRPRPVNCPRP | -0.247 |
| RRIRTRPPRLPRPRPRPQHPPRP | 0.0586 |
| RRIRNRPPRLPRPRPRPTCDPRP | 0.0801 |
| RRIRWRPPRLPRPRPRPLRTPRP | 1.39 |
| RRIRNRPPRLPRPRPRPISVPRP | -0.00409 |
| RRIRMRPPRLPRPRPRPRYYPRP | -0.261 |
| RRIRCRPPRLPRPRPRPHWWPRP | 0.0398 |
